Experimental findings from publication PMC9899272, “An engineered variant of MECR reductase reveals indispensability of long-chain acyl-ACPs for mitochondrial respiration” (Nature Communications, 2023) are described below.

Substitutions are numbered along the chain they refer to. Numbers in names are those of the source.

Data set [1] deals with the molecule itself. Kind of data set: crystal structure; sitting drop vapor diffusion at +4 °C, 16.82% PEG 6000, 1 M NaCl, 100 mM acetic acid, pH 4.5; trigonal space group P3(1)21; one chain in the asymmetric unit, dimer via a crystallographic 2-fold axis.
Substrate in data set [2]: CCC/C=C/C(=O)SCCNC(=O)CCNC(=O)[C@H](O)C(C)(C)COP(=O)(O)OP(=O)(O)OC[C@H]1O[C@@H](n2cnc3c(N)ncnc32)[C@H](O)[C@@H]1OP(=O)(O)O
Kind of data set: spectrophotometric 2E-enoyl-CoA reductase assay, Michaelis-Menten fit. Type of data set: biochemical, Homo sapiens. To be noted: 125 µM NADPH, 100 µg bovine serum albumin, 50 mM potassium phosphate pH 7.5, 25 °C. From the text:
(§1) spectrophotometric 2E-enoyl-CoA reductase assay, Michaelis-Menten fit on MECR

Substrate in data set [3]: CCCCCCC/C=C/C(=O)SCCNC(=O)CCNC(=O)[C@H](O)C(C)(C)COP(=O)(O)OP(=O)(O)OC[C@H]1O[C@@H](n2cnc3c(N)ncnc32)[C@H](O)[C@@H]1OP(=O)(O)O
Described as above. The class given is biochemical, Homo sapiens. To be noted: 125 µM NADPH, 100 µg bovine serum albumin, 50 mM potassium phosphate pH 7.5, 25 °C.
Excerpt: as §1

Substrate in data set [4]: CCCCC/C=C/C(=O)SCCNC(=O)CCNC(=O)[C@H](O)C(C)(C)COP(=O)(O)OP(=O)(O)OC[C@H]1O[C@@H](n2cnc3c(N)ncnc32)[C@H](O)[C@@H]1OP(=O)(O)O
Described as above. The class given is biochemical, Homo sapiens. To be noted: 125 µM NADPH, 100 µg bovine serum albumin, 50 mM potassium phosphate pH 7.5, 25 °C.
Excerpt: as §1

B1: wild-type human MECR (2E-enoyl-ACP reductase) with C-terminal His-tag (enzyme, UniProt Q9BV79 31-373, looked up)
chain: ASSYSASAEPARVRALVYGHHGDPAKVVELKNLELAAVRGSDVRVKMLAAPINPSDINMIQGNYGFLPELPAVGGNEGVAQVVAVGSNVTGLKPGDWVIPANAGLGTWRTEAVFSEEALIQVPSDIPLQSAATLGVNPCTAYRMLMDFEQLQPGDSVIQNASNSGVGQAVIQIAAALGLRTINVVRDRPDIQKLSDRLKSLGAEHVITEEELRRPEMKNFFKDMPQPRLALNCVGGKSSTELLRQLARGGTMVTYGGMAKQPVVASVSLLIFKDLKLRGFWLSQWKKDHSPDQFKELILTLCDLIRRGQLTAPACSQVPLQDYQSALEASMKPFISSKQILTM
notes: the first N-terminal residues of the crystallised protein are A31-A41 (not defined in the maps); the C-terminus is seen till L374, followed by the six-residue His-tag; L374 lies beyond M373, the last visible residue of the earlier structures, and is probably a vector residue before the His-tag; also called wild-type MECR; MECR WT; source: E. coli BL 21 Star (DE3) pLysS, purified (Ni-NTA, …)
What is called stoichiometry N is a count of units in the complex or per binding partner. Usually Km stands for the substrate concentration at which the rate is half of its maximum. As a reminder, the kcat is the maximal rate divided by the concentration of active sites. The kcat/Km is the turnover number divided by the Michaelis constant. As to B1, in data set [1], the “stoichiometry N” value is 2. In addition, in data set [2], the Michaelis constant (Km) is given as 90.6 ± 26.5 µM, the kcat turned out to be 0.99 ± 0.22 s⁻¹ and the kcat/Km worked out at 10000 M⁻¹ s⁻¹. Moreover, in data set [3], the Km is 15.9 ± 2.2 µM, the kcat was 0.62 ± 0.02 s⁻¹ and the kcat/Km was 40000 M⁻¹ s⁻¹. Further, in data set [4], the Km is listed as 23.2 ± 5.4 µM, the kcat was 1.8 ± 0.13 s⁻¹ and the kcat/Km was 80000 M⁻¹ s⁻¹.

B2: MECR G165Q variant with C-terminal His-tag (enzyme, human, UniProt Q9BV79 31-373, looked up)
chain: B1 chain with G135Q
notes: the first N-terminal residues of the crystallised protein are A31-A41 (not defined in the maps); the C-terminus is seen till L374, followed by the six-residue His-tag; L374 is probably a vector residue before the His-tag; also called G165Q MECR; G165Q mutant; source: E. coli BL 21 Star (DE3) pLysS, purified (Ni-NTA, size-exclusion chromatography); not shown: His6, C-terminal, kept
Take B2: the “stoichiometry N” value in data set [1] was found to be 2. For the same protein, in data set [2], the Km was found to be 111.2 ± 17.3 µM, the kcat came to 3.49 ± 0.33 s⁻¹ and the kcat/Km was found to be 30000 M⁻¹ s⁻¹. In addition, in data set [3], the Km came to 8.15 ± 1.54 µM, the kcat was 0.3 ± 0.02 s⁻¹ and the kcat/Km was 40000 M⁻¹ s⁻¹. In addition, in data set [4], the Km turned out to be 114.1 ± 16.2 µM, the kcat worked out at 12.4 ± 1.9 s⁻¹ and the kcat/Km was determined as 110000 M⁻¹ s⁻¹.
